Reference: US20070243558A1, “Peptide Stabilization” (priority 2004, published 2007)
Where two headings read alike, the source gives them in different places.

Key:
[1] = Stability of U-INTP in samples after three days at room temperature, without and with stabilizer (Table 4); assay type: physicochemical; set-up: U-INTP test result, Immed.: unit not given beside the values; settings: for U-INTP test result, 3 days + stabilizer / U-INTP, 3 days + stabilizer, in % of immed.-sample: with stabilizer
Text: Two parallel tests were done for each sample.

[2] = Stability of the same analytes in serum samples, with and without 5% DMSO (Table 3); assay type: physicochemical
Text: Table 3 is a test corresponding to the test of Table 2, but where the ten samples to be tested were serum samples rather than plasma samples.

[3] = Storage stability of analytes in serum sample without stabilizer (background statement); assay type: physicochemical; settings: room temperature
Text: In connection with said determinations and sample handling the poor stability of gastrin-17 has proven to be a problem, due to the fact that it decomposes rapidly in the sample. […] This is in contrast to pepsinogen I and II, which retain their activity at room temperature for many days, and Helicobacter pylori antibodies, which survive for at least three days under refrigerator conditions.

[4] = room temperature; for effect of adding DMSO on the activity: EDTA-plasma samples, day 0 and day 3
Protocol: The effect of adding DMSO was tested on pepsinogen I, pepsinogen II, Helicobacter pylori antibodies and gastrin-17. The results are indicated at day 0 and day 3.

[5] = Sample 1, three days at room temperature
[6] = Sample 1 parall., three days at room temperature
[7] = Sample 2, three days at room temperature
[8] = Sample 2 parall., three days at room temperature
[9] = EDTA-plasma sample PL466s, 0% DMSO, day 0
[10] = EDTA-plasma sample PL466s, 0% DMSO, day 3
[11] = EDTA-plasma sample PL466s, 5% DMSO, day 0
[12] = EDTA-plasma sample PL466s, 5% DMSO, day 3
[13] = EDTA-plasma sample PL467s, 0% DMSO, day 0
[14] = EDTA-plasma sample PL467s, 0% DMSO, day 3
[15] = EDTA-plasma sample PL467s, 5% DMSO, day 0
[16] = EDTA-plasma sample PL467s, 5% DMSO, day 3
[17] = EDTA-plasma sample PL471s, 0% DMSO, day 0
[18] = EDTA-plasma sample PL471s, 0% DMSO, day 3
[19] = EDTA-plasma sample PL471s, 5% DMSO, day 0
[20] = EDTA-plasma sample PL471s, 5% DMSO, day 3
[21] = EDTA-plasma sample PL472s, 0% DMSO, day 0
[22] = EDTA-plasma sample PL472s, 0% DMSO, day 3
[23] = EDTA-plasma sample PL472s, 5% DMSO, day 0
[24] = EDTA-plasma sample PL472s, 5% DMSO, day 3
[25] = EDTA-plasma sample PL473s, 0% DMSO, day 0
[26] = EDTA-plasma sample PL473s, 0% DMSO, day 3
[27] = EDTA-plasma sample PL473s, 5% DMSO, day 0
[28] = EDTA-plasma sample PL473s, 5% DMSO, day 3

collagen I aminoterminal telopeptide [U-INTP]
U-INTP test result, Immed. ([1]; Sample 1, immediately): 200
U-INTP test result, 3 days no stabilizer [1, 5]: 189
U-INTP, 3 days no stabilizer, in % of immed.-sample [1, 5]: 94.5%
U-INTP test result, 3 days + stabilizer [1, 5]: 202
U-INTP, 3 days + stabilizer, in % of immed.-sample [1, 5]: 101.0%
U-INTP test result, Immed. ([1]; Sample 1 parall., immediately): 199
U-INTP test result, 3 days no stabilizer [1, 6]: 187
U-INTP, 3 days no stabilizer, in % of immed.-sample [1, 6]: 94.0%
U-INTP test result, 3 days + stabilizer [1, 6]: 209
U-INTP, 3 days + stabilizer, in % of immed.-sample [1, 6]: 105.0%
U-INTP test result, Immed. ([1]; Sample 2, immediately): 113
U-INTP test result, 3 days no stabilizer [1, 7]: 115
U-INTP, 3 days no stabilizer, in % of immed.-sample [1, 7]: 101.8%
U-INTP test result, 3 days + stabilizer [1, 7]: 144
U-INTP, 3 days + stabilizer, in % of immed.-sample [1, 7]: 127.4%
U-INTP test result, Immed. ([1]; Sample 2 parall., immediately): 118
U-INTP test result, 3 days no stabilizer [1, 8]: 114
U-INTP, 3 days no stabilizer, in % of immed.-sample [1, 8]: 96.6%
U-INTP test result, 3 days + stabilizer [1, 8]: 136
U-INTP, 3 days + stabilizer, in % of immed.-sample [1, 8]: 115.3%

pepsinogen I [PGI]
PGI concentration ([2]; serum sample PL411s, 0% DMSO): 283.6 µg/L
PGI concentration ([2]; serum sample PL411s, 5% DMSO): 296.0 µg/L
PGI concentration ([2]; serum sample PL420b, 0% DMSO): 75.5 µg/L
PGI concentration ([2]; serum sample PL420b, 5% DMSO): 79.3 µg/L
PGI concentration ([2]; serum sample PL426s, 0% DMSO): 49.7 µg/L
PGI concentration ([2]; serum sample PL426s, 5% DMSO): 50.6 µg/L
PGI concentration ([2]; serum sample PL438s, 0% DMSO): 158.6 µg/L
PGI concentration ([2]; serum sample PL438s, 5% DMSO): 156.0 µg/L
PGI concentration ([2]; serum sample PL439s, 0% DMSO): 67.6 µg/L
PGI concentration ([2]; serum sample PL439s, 5% DMSO): 68.5 µg/L
PGI concentration ([2]; serum sample PL447b, 0% DMSO): 6.0 µg/L
PGI concentration ([2]; serum sample PL447b, 5% DMSO): 6.0 µg/L
PGI concentration ([2]; serum sample PL454s, 0% DMSO): 100.6 µg/L
PGI concentration ([2]; serum sample PL454s, 5% DMSO): 102.3 µg/L
PGI concentration ([2]; serum sample PL455b, 0% DMSO): 79.2 µg/L
PGI concentration ([2]; serum sample PL455b, 5% DMSO): 81.5 µg/L
PGI concentration ([2]; serum sample PL457b, 0% DMSO): 101.1 µg/L
PGI concentration ([2]; serum sample PL457b, 5% DMSO): 106.9 µg/L
PGI concentration ([2]; serum sample PL458s, 0% DMSO): 77.1 µg/L
PGI concentration ([2]; serum sample PL458s, 5% DMSO): 80.1 µg/L
time for which activity is retained [3]: many days
PGI concentration [4, 9]: 58.8 µg/L
PGI concentration [4, 10]: 76.9 µg/L
PGI concentration [4, 11]: 60.5 µg/L
PGI concentration [4, 12]: 77.4 µg/L
PGI concentration [4, 13]: 73.3 µg/L
PGI concentration [4, 14]: 94.9 µg/L
PGI concentration [4, 15]: 76.8 µg/L
PGI concentration [4, 16]: 98.8 µg/L
PGI concentration [4, 17]: 60.6 µg/L
PGI concentration [4, 18]: 85.5 µg/L
PGI concentration [4, 19]: 67.6 µg/L
PGI concentration [4, 20]: 84.3 µg/L
PGI concentration [4, 21]: 110.3 µg/L
PGI concentration [4, 22]: 134.8 µg/L
PGI concentration [4, 23]: 109.4 µg/L
PGI concentration [4, 24]: 135.6 µg/L
PGI concentration [4, 25]: 94.9 µg/L
PGI concentration [4, 26]: 115.4 µg/L
PGI concentration [4, 27]: 94.7 µg/L
PGI concentration [4, 28]: 102.1 µg/L
effect of adding DMSO on the activity [4]: essentially no effect

B1: pepsinogen II (protein, UniProt P20142 17-388, looked up)
pro-form: AVVKVPLKKFKSIRETMKEKGLLGEFLRTHKYDPAWKYRFGDLSVTYEPMAYMDAAYFGEISIGTPPQNFLVLFDTGSSNLWVPSVYCQSQACTSHSRFNPSESSTYSTNGQTFSLQYGSGSLTGFFGYDTLTVQSIQVPNQEFGLSENEPGTNFVYAQFDGIMGLAYPALSVDEATTAMQGMVQEGALTSPVFSVYLSNQQGSSGGAVVFGGVDSSLYTGQIYWAPVTQELYWQIGIEEFLIGGQASGWCSEGCQAIVDTGTSLLTVPQQYMSALLQATGAQEDEYGQFLVNCNSIQNLPSLTFIINGVEFPLPPSSYILSNNGYCTVGVEPTYLSSQNGQPLWILGDVFLRSYYSVYDLGNNRVGFATAA
modifications: pro-form
notes: analyte determined from serum or plasma sample
PGII concentration ([2]; serum sample PL411s, 0% DMSO): 32.8 µg/L
PGII concentration ([2]; serum sample PL411s, 5% DMSO): 33.6 µg/L
PGII concentration ([2]; serum sample PL420b, 0% DMSO): 6.3 µg/L
PGII concentration ([2]; serum sample PL420b, 5% DMSO): 5.7 µg/L
PGII concentration ([2]; serum sample PL426s, 0% DMSO): 3.5 µg/L
PGII concentration ([2]; serum sample PL426s, 5% DMSO): 3.1 µg/L
PGII concentration ([2]; serum sample PL438s, 0% DMSO): 13.6 µg/L
PGII concentration ([2]; serum sample PL438s, 5% DMSO): 12.8 µg/L
PGII concentration ([2]; serum sample PL439s, 0% DMSO): 5.7 µg/L
PGII concentration ([2]; serum sample PL439s, 5% DMSO): 5.2 µg/L
PGII concentration ([2]; serum sample PL447b, 0% DMSO): 4.9 µg/L
PGII concentration ([2]; serum sample PL447b, 5% DMSO): 4.6 µg/L
PGII concentration ([2]; serum sample PL454s, 0% DMSO): 7.7 µg/L
PGII concentration ([2]; serum sample PL454s, 5% DMSO): 7.3 µg/L
PGII concentration ([2]; serum sample PL455b, 0% DMSO): 7.3 µg/L
PGII concentration ([2]; serum sample PL455b, 5% DMSO): 7.1 µg/L
PGII concentration ([2]; serum sample PL457b, 0% DMSO): 7.1 µg/L
PGII concentration ([2]; serum sample PL457b, 5% DMSO): 6 µg/L
PGII concentration ([2]; serum sample PL458s, 0% DMSO): 6.7 µg/L
PGII concentration ([2]; serum sample PL458s, 5% DMSO): 5.8 µg/L
time for which activity is retained [3]: many days
PGII concentration [4, 9]: 6.8 µg/L
PGII concentration [4, 10]: 8.3 µg/L
PGII concentration [4, 11]: 6.6 µg/L
PGII concentration [4, 12]: 7.7 µg/L
PGII concentration [4, 13]: 5 µg/L
PGII concentration [4, 14]: 6.4 µg/L
PGII concentration [4, 15]: 4.9 µg/L
PGII concentration [4, 16]: 6.2 µg/L
PGII concentration [4, 17]: 4.9 µg/L
PGII concentration [4, 18]: 5.8 µg/L
PGII concentration [4, 19]: 4.8 µg/L
PGII concentration [4, 20]: 5.3 µg/L
PGII concentration [4, 21]: 5.7 µg/L
PGII concentration [4, 22]: 7.3 µg/L
PGII concentration [4, 23]: 5.7 µg/L
PGII concentration [4, 24]: 6.9 µg/L
PGII concentration [4, 25]: 6.4 µg/L
PGII concentration [4, 26]: 8.5 µg/L
PGII concentration [4, 27]: 6.4 µg/L
PGII concentration [4, 28]: 7.9 µg/L
effect of adding DMSO on the activity [4]: essentially no effect
